According to article PMC7223222:

Target: pmE2:pFc2 fusion protein (transmembrane domain-deleted classical swine fever virus envelope glycopro (classical swine fever virus))
Test: SEC

pmE2:pFc2 fusion protein (transmembrane domain-deleted classical swine fever virus envelope glycopro (Fc fusion)
stoichiometry N: 3
